Assay results from the domain aggregation screens of Martell et al. (2025).

Test: soluble fraction after stress (log2 fold change); higher = more stays soluble; pooled small domains, quantitative proteomics
Settings: stress: 50 degC
Outline: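 Each library was heated to 50°C as a stress step. The libraries, made up of small protein domains, were pooled and analysed at high throughput by quantitative proteomics. The reported value is the base-two logarithm of the fold change in each protein's soluble amount after stress, taken as a measure of aggregation propensity. The higher the value, the more protein stays in solution.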

| Sequence | soluble fraction (log2) |
| --- | --- |
| HMTVRLSVSADGKFFWNESQVSEEELFPRLQAEAAKEPQPDLHIRGDKNVRYEFVAQAMAAAQRAGVRKI | -0.404 |
| HMNMEDIADKIGRLYDNLPDDLKLMIKYRDIDDMTYDEIARKANLPIGTVRSRLHRARDILLREI | -0.647 |
| HMDEWDDGDKPKLKITLYADDDYYFASGFSKSSVSLSGSDGTVTSVSRSSSDTLIVYVTLDALD | -0.0264 |
| HMGVGTTDERLAVLNQIASRQTEALEKLGPNNPLVGLGQIRNTLSKMLEISGYPDSNQFFKQVPLDYEPPP | 0.173 |
| HMSIGLEELVGSHGEAITDLRPAGQVSIAARRISAVSEGDFINKGDSVEVLSVEGYRVMVRKLET | 0.00441 |
| HMNKIENLSQTILNILRKDHSQAFNYKQIAAKLQLDDPSSRNQIVKKLKDLQGKGTIQEIERGKYILTP | 0.358 |
| HMSEYNPGIYRVTDPALNIRTGPGVEYPVVGVIKDQGSYTITEIRNKSWGRLLSGAGSTAIKHIVFT | 0.0941 |
| HMATTTEPTSPPAATASLEAKINWLFLIFRNKKTVTASEQKFHAEDASTVVGKETLTDDGTTMTKGETAAG | 0.0862 |
| HMLQNLGFKPDLEIRHFPGIVLPDIHRSKKTISLLYTLLAGDIKKLPENEINYKDSKIISSYLWTLLRYH | 0.0237 |
| HMPENESPEEKHARFRRFAEGLMARLDENESVRDILPELKVWLDDRELDRDDQRLARNLMLTAGKRE | 0.0802 |
| HMTRRGPLTEGDRVQVRDPKGRFHQVILVRGGRFQSNRGGFNHDDVIGRPDGQVIITDEGRQFQIL | 0.512 |
| HMAFYQDIAVDLRKQIIDGVYPKNSRLPNQAELAKLYTTSRVTIQKALKILQIEGLIEGRQGSGSYVKGP | -1.42 |
| HMGGSLADAKRFLADLLADGPVPAKGVRADADGAGHTWPTIRRAQKALGIEATKTGMKGGWVWALPR | -0.034 |
| HMLASDYEEELSVLIKMSHKIAAGDDSLMDDFNDRVTMFESSYPINKATKDLTPVLERVNKFQT | -0.346 |
| HMLPDPIYEAFMMASDLGIVVRNGPQYAYPDKETGEVLYKALGREKFLQLMKDNDGLLTSIETEIRSM | -1.18 |
| HMNIAESIRKYRKASGLTQEEMAKRLGVTTPAVSKWENGITNPDIALLAPIARLFHISVDTLLSYR | -0.403 |
| HMTPKVDLTVAEDGSASAVIAGLRVEIDAAGKVTAVAPADGTTDLSSVAPEAVKEAMDNALAAYTASKG | 0.0555 |
| HMNREEKKALTRRQIIDVATRLFRQHGIHNTDLKTIATEAGVSVVTFYKYFDSKEALIGTIAAEQ | -0.281 |
| HMGNFFDSAILALKNAIQENYGGNVSQAARSLGISVPTLHTWIKGDRKPSLEKLSPILDALNAKIVL | -0.726 |
| HMEQQEFIVPHDSEGQRLDLFLVSVLGTHSRSQIRKLIVNGHVKLENRAPRPNLPVRAGESVVVSMPEPT | 0.121 |
| HMSNYYNILGVNKSSTQDEIKKAFRKKAVEHHPDKGGNEATFKKINEAYNTLSDNNKRHMYDMQQSG | 0.213 |
| HMLDDDAGMIQAILRKAPGHYLPLHDKSDPASIQAQLGISKAQFKRAVGTLMKQGLIRQVKGDGLYLTQ | 0.0324 |
| HMKEILLITGKGLHSGQDDVYKSAQLSKLRYSVPEFIKSNLEISQLILSVETPLQKDGGDGALLIK | 0.13 |
| HMNTLLYAPKVSPNPFTPNADGINDVVNISYKLLRVISAVPISVEVFDLSGRLIKTLYSGVDPLGEY | 0.158 |
| HMSLIDLLQLNRKSKKLTLMNLVEMTGLSYGKVYRIFNGGIDKPTPDSLKLLAKALQLDYSYLFHKAGYL | -0.161 |
| HMLTLEDMTRINSIISPRIKKGQSLYHIAKNNGDELNISESTLRRLVMTGEMDAGIIDLPQAVK | -0.138 |
| HMAGPAGASEVANARDGDDETPLHMAARGGYPGIVRMLLAAGAKADAKSAAGLFPWNYAEDGSELHALLPR | 0.0684 |
| HMADVLLKHGSSGDYVWDLQYRLKTLSLFDQEMTGYFGPHTRQAVVNFQRKYGLPADGVVGPATWRALRK | -2.27 |
